Positions count from the first letter of the chain named.
B1: SEQ ID NO: 15×SEQ ID NO: 23 bispecific antibody (bispecific antibody)
heavy (part 1 of 2) 1: QVQLVQSGAEVKKPGASVKVSCKASGYTFTSYGISWVRQAPGQGLEWMGWISAYSGNTNYAQKLQGRVTMTTDTSTSTAYMELRSLRSDDTAVYYCARDGSGWDDFDYWGQGTLVTVSSASTKGPSVFPLAPSSKSTSGGTAALGCLVKDYFPEPVTVSWNSGALTSGVHTFPAVLQSSGLYSLSSVVTVPSSSLGTQTYICNVNHKPSNTKVDKRV
heavy (part 2 of 2) 1: not shown
heavy (part 1 of 2) 2: not shown
heavy (part 2 of 2) 2: not shown
light: not shown
notes: Fc-silenced IgG1, monovalent for LAG-3 and for PD-L1; also called PB59; not shown: IgG1 hinge
B2: bivalent monospecific parental LAG-3 antibody SEQ ID NO: 15 (antibody, IgG1)
heavy (part 1 of 2): B1 heavy (part 1 of 2) 1
heavy (part 2 of 2): not shown
light: not shown
notes: IgG1; not shown: IgG1 hinge
B3: SEQ ID NO: 1×SEQ ID NO: 23 bispecific antibody (bispecific antibody)
heavy (part 1 of 2) 1: QVQLQESGPGLVRPSETLSLTCTVSGGSISSYSWSWIRQPPGKGLEWIGYIDYSGSTNYNPSLKSRVTISVDTSKTQFSLKLSSVSAADTAVYYCAKDLLYKWNYVEGFDIWGQGTTVTVSSASTKGPSVFPLAPSSKSTSGGTAALGCLVKDYFPEPVTVSWNSGALTSGVHTFPAVLQSSGLYSLSSVVTVPSSSLGTQTYICNVNHKPSNTKVDKRV
heavy (part 2 of 2) 1: not shown
heavy (part 1 of 2) 2: not shown
heavy (part 2 of 2) 2: not shown
light: not shown
notes: Fc-silenced IgG1, monovalent for LAG-3 and for PD-L1; also called PB3; not shown: IgG1 hinge
B4: bivalent monospecific parental LAG-3 antibody SEQ ID NO: 1 (antibody, IgG1)
heavy (part 1 of 2): B3 heavy (part 1 of 2) 1
heavy (part 2 of 2): not shown
light: not shown
notes: IgG1; not shown: IgG1 hinge
B5: relatlimab analog (antibody, V domains shown)
VH: QVQLQQWGAGLLKPSETLSLTCAVYGGSFSDYYWNWIRQPPGKGLEWIGEINHRGSTNSNPSLKSRVTLSLDTSKNQFSLKLRSVTAADTAVYYCAFGYSDYEYNWFDPWGQGTLVTVSS
VL: EIVLTQSPATLSLSPGERATLSCRASQSISSYLAWYQQKPGQAPRLLIYDASNRATGIPARFSGSGSGTDFTLTISSLEPEDFAVYYCQQRSNWPLTFGQGTNLEIK
notes: also called analog of anti-LAG-3 antibody relatlimab
B6: SEQ ID NO: 16×SEQ ID NO: 23 bispecific antibody (bispecific antibody)
heavy (part 1 of 2) 1: QVQLVQSGAEVKKPGASVKVSCKASGYTFTSYGISWVRQAPGQGLEWMGWISAYSGNTNYAQKLQGRVTMTTDTSTSTAYMELRSLRSDDTAVYYCARGSILAAQMWGDIWGQGTLVTVSSASTKGPSVFPLAPSSKSTSGGTAALGCLVKDYFPEPVTVSWNSGALTSGVHTFPAVLQSSGLYSLSSVVTVPSSSLGTQTYICNVNHKPSNTKVDKRV
heavy (part 2 of 2) 1: not shown
heavy (part 1 of 2) 2: not shown
heavy (part 2 of 2) 2: not shown
light: not shown
notes: Fc-silenced IgG1, monovalent for LAG-3 and for PD-L1; also called PB63; not shown: IgG1 hinge
B7: bivalent monospecific parental LAG-3 antibody SEQ ID NO: 16 (antibody, IgG1)
heavy (part 1 of 2): B6 heavy (part 1 of 2) 1
heavy (part 2 of 2): not shown
light: not shown
notes: IgG1; not shown: IgG1 hinge
B8: SEQ ID NO: 5×SEQ ID NO: 23 bispecific antibody (bispecific antibody)
heavy (part 1 of 2) 1: QVQLQESGPGLVKPSETLSLTCTVSDDSISDYYWSWIRQPPGKGLEWIGYIYYSGNTKYNPSLKNRVTISVDTSKSQFSLKLTSVTAADTAVYYCARIPLTGEFDYWAQGTLVTVSSASTKGPSVFPLAPSSKSTSGGTAALGCLVKDYFPEPVTVSWNSGALTSGVHTFPAVLQSSGLYSLSSVVTVPSSSLGTQTYICNVNHKPSNTKVDKRV
heavy (part 2 of 2) 1: not shown
heavy (part 1 of 2) 2: not shown
heavy (part 2 of 2) 2: not shown
light: not shown
notes: Fc-silenced IgG1, monovalent for LAG-3 and for PD-L1; also called PB19; not shown: IgG1 hinge
B9: bivalent monospecific parental LAG-3 antibody SEQ ID NO: 5 (antibody, IgG1)
heavy (part 1 of 2): B8 heavy (part 1 of 2) 1
heavy (part 2 of 2): not shown
light: not shown
notes: IgG1; not shown: IgG1 hinge
B10: SEQ ID NO: 52×SEQ ID NO: 20 bispecific antibody (bispecific antibody)
heavy (part 1 of 2) 1: B8 heavy (part 1 of 2) 1 with E103D, Y106F
heavy (part 2 of 2) 1: not shown
heavy (part 1 of 2) 2: not shown
heavy (part 2 of 2) 2: not shown
light: not shown
notes: IgG1; also called PB90; not shown: IgG1 hinge

What was measured:
[1] = molecular target: T1, LAG-3 on PD-1 and LAG-3 expressing Jurkat T cells (effector cells of the PD-1/LAG-3 reporter assay) (UniProt P18627 23-525); experiment: cell-based or functional assay
T1 sequence (looked up): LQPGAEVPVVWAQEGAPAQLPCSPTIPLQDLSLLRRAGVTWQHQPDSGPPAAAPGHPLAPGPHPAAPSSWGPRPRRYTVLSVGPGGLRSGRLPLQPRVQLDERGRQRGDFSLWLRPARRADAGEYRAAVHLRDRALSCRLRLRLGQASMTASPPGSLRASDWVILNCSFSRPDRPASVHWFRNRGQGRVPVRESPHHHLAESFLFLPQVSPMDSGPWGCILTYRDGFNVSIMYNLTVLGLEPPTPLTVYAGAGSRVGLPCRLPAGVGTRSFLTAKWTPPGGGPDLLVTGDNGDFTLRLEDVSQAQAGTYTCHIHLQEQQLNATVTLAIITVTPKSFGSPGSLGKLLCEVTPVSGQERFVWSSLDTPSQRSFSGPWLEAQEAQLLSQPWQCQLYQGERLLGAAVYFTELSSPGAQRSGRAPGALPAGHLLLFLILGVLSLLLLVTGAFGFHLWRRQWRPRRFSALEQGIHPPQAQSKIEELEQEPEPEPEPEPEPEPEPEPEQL

[2] = molecular target: T2, PD-L1 on PD-L1 expressing Raji cells (target cells of the PD-1/LAG-3 reporter assay) (UniProt Q9NZQ7 19-290, limits assumed); experiment: cell-based or functional assay
[3] = molecular target: T3, human LAG-3 (293FF cell line stably transfected with human LAG-3) (human, UniProt P18627 23-525); experiment: FACS on 293FF cells expressing human LAG-3
T3 construct: whole, on cells; also called huLAG-3; 293FF-huLAG-3
T3 sequence (looked up): T1 sequence (looked up)

[4] = molecular target: T4, human PD-L1 (CHO-K1 cell line stably transfected with human PD-L1) (human, UniProt Q9NZQ7 19-290); experiment: FACS on CHO-K1 cells expressing human PD-L1
T4 construct: whole, on cells; also called huPD-L1; CHO-K1-huPD-L1

[5] = molecular target: T5, rhesus LAG-3 (293FF cell line stably transfected with rhesus LAG-3) (rhesus, UniProt A0A5F8A874 23-533); experiment: FACS on 293FF cells stably expressing rhesus LAG-3, goat-anti-human PE secondary, MFI
T5 construct: whole, on cells; also called reLAG-3; 293FF-reLAG-3
T5 sequence: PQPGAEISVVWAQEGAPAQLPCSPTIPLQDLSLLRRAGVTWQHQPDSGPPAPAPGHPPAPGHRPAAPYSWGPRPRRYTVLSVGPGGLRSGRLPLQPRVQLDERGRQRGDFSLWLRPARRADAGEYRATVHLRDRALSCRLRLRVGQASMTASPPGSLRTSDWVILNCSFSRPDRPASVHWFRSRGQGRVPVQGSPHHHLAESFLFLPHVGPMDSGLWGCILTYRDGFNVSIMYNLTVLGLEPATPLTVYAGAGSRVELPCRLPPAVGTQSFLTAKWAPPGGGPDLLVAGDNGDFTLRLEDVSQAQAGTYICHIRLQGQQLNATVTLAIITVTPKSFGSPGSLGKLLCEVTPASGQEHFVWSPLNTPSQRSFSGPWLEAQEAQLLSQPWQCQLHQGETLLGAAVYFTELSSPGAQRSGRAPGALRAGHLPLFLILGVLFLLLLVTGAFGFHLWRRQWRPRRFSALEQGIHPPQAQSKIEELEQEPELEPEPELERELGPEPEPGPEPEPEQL

[6] = molecular target: T6, rhesus PD-L1 (CHO-K1 cell line stably transfected with rhesus PD-L1) (rhesus, UniProt F6VEW6 19-290); experiment: FACS on CHO-K1 cells stably expressing rhesus PD-L1, goat-anti-human PE secondary, MFI
T6 construct: whole, on cells

[7] = molecular target: T7, cynomolgus monkey LAG-3-His (Sino Biological, Cat nr. 90841-C08H) (cynomolgus monkey); experiment: SPR, BIAcore T200, antibody captured by anti-huIgG Fcγ on a CM5 chip, antigen in solution, 1:1 model
T7 construct: also called cynomolgus LAG-3

[8] = molecular target: T1, LAG-3 on PD-1 and LAG-3 expressing …; experiment: cell-based or functional assay; remark: listed apart in the source
[9] = molecular target: T2, PD-L1 on PD-L1 expressing Raji cells …; experiment: cell-based or functional assay; remark: listed apart in the source
[10] = molecular target: T3, human LAG-3 (293FF cell line stably …); experiment: FACS on 293FF-huLAG-3 cells
[11] = molecular target: T5, rhesus LAG-3 (293FF cell line stably …); experiment: FACS on 293FF-reLAG-3 cells
[12] = molecular target: T4, human PD-L1 (CHO-K1 cell line stably …); experiment: FACS on CHO-K1-huPD-L1 cells

T2 sequence (Q9NZQ7 19-290 limits assumed): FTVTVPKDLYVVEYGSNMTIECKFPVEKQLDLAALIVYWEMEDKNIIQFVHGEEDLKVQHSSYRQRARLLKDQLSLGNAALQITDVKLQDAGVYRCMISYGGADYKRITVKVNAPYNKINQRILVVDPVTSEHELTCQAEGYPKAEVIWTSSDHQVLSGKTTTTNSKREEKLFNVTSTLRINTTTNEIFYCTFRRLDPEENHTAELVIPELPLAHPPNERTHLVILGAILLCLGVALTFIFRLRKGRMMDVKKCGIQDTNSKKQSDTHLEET
T4 sequence (Q9NZQ7 19-290): as the sequence (Q9NZQ7 19-290 limits assumed) above

AUC compared to control, PD-1/LAG-3 reporter assay (luciferase) [1]	AUC compared to control, PD-1/LAG-3 reporter assay (luciferase) [2]	EC50 [3] [nM]	EC50 [4] [nM]	other results	Binder
71 relative to AUC of positive control	71 relative to AUC of positive control	113	2.41		B1
		0.94		EC50 (read off the curve) [5]: ~0.6 µg/mL	B2
54.8 relative to AUC of positive control	54.8 relative to AUC of positive control	52.1	0.74	EC50 (read off the curve) [6]: ~0.05 µg/mL	B3
		0.54			B4
				Kd [7]: 11.5 nM	B5
58.3 relative to AUC of positive control	58.3 relative to AUC of positive control	24.1	1.01		B6
		13.3			B7
83.9 relative to AUC of positive control	83.9 relative to AUC of positive control	8.64	1.21		B8
		1.88			B9
				AUC (% of control), PD-1/LAG-3 reporter assay [8]: 96.9 % of control; EC50, PD-1/LAG-3 reporter assay [8]: 1.15 µg/mL; AUC (% of control), PD-1/LAG-3 reporter assay [9]: 96.9 % of control; EC50, PD-1/LAG-3 reporter assay [9]: 1.15 µg/mL; EC50 [10]: 1.25 µg/mL; EC50 [11]: 3.22 µg/mL; EC50 [12]: 0.009 µg/mL	B10

Source: patent publication US20240309115A1 (MERUS N V, published 2024)
